Data reported in the supplement of paper PMC11908140.

B1: library; numbered along this chain (parent)
chain: MRKPRAAVGSGHRKQAASQEGRQKHAKNNSQAKPSACDGLARQPEEVVLQASVSSYHLFRDVAEVTAFRGSLLSWYDQEKRDLPWRRRAEDEMDLDRRAYAVWVSEVMLQQTQVATVINYYTGWMQKWPTLQDLASASLEEVNQLWAGLGYYSRGRRLQEGARKVVEELGGHMPRTAETLQQLLPGVGRYTAGAIASIAFGQATGVVDGNVARVLCRVRAIGADPSSTLVSQQLWGLAQQLVDPARPGDFNQAAMELGATVCTPQRPLCSQCPVESLCRARQRVEQEQLLASGSLSGSPDVEECAPNTGQCHLCLPPSEPWDQTLGVVNFPRKASRKPPREESSATCVLEQPGALGAQILLVQRPNSGLLAGLWEFPSVTWEPSEQLQRKALLQELQRWAGPLPATHLRHLGEVVHTFSHIKLTYQVYGLALEGQTPVTTVPPGARWLTQEEFHTAAVSTAMKKVFRVYQGQQPGTCMGSKRSQVSSPCSRKKPRMGQQVLDNFFRSHISTDAHSLNSAAQ

Variants of: B1
Assay: 8OG:A repair function score (normalized; synonymous = 0, nonsense = -1) (normalized log-likelihood score); higher = more repair activity (WT-like)
Conditions: with 8OG:A DNA repair reporter (GFP) in HEK-293 MUTYH KO cells
Method in brief: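 After 72 h, viable mCherry+ cells were split into GFP+ (repair) and GFP− bins in three replicates per tile. These cells were MUTYH knockout HEK-293 cells holding lentiviral MUTYH cDNA NNN codon-scan libraries, kept in 10 pg/ml doxycycline and co-transfected with mCherry plus an 8OG:A GFP repair reporter. Sequencing of tile amplicons gave per-tile Rosace fitness scores, normalized into a repair function score anchored on synonymous and nonsense distributions. Synonymous medians were fixed at 0, nonsense at -1, and variants under 300 counts per million at the start were removed.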
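Further: cells sorted at 72 h after reporter transfection.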

8OG:A repair function score: each site, then its substitutions
E433: T -0.00904, N -0.0644, W -0.393, K -0.0112, V -0.164, A 0.0651, F -0.199, H -0.0353, R 0.0685, P 0.219, G 0.00508, M -0.0329, C -0.179, Q 0.165, S 0.0139, Y -0.0863, D -0.241, L -0.0355, I 0.00922
L432: M -0.284, D -0.57, V -0.118, A -0.541, S -0.284, N -0.504, H -0.223, Y -0.499, I -0.208, C 0.0294, W 0.0604, F -0.116, Q -0.604, E -0.542, K -0.608, P -0.514, R -0.334, G -0.302, T -0.151
F418: W -0.969, N -0.355, P -0.719, C -0.171, L -0.304, I 0.255, D -1.06, E -0.889, Y -0.368, M 0.07, T -0.165, S -0.474, K -0.75, Q -0.554, R -0.722, H -0.4, V -0.269, A -0.333, G -0.636
S419: A -0.188, V -0.259, N -0.269, Y -0.503, T -0.177, C -0.434, D -0.221, W -0.75, H -0.28, E -0.583, L -0.749, G -0.522, K 0.0315, R -0.334, F -0.753, I -0.542, P -0.574, M -0.561, Q -0.333
V427: T -0.409, D -1.2, E -1.24, C -0.195, R -1.04, Q -1.16, F -1.1, A -0.455, S -0.925, G -1.03, K -1.06, Y -1.2, I -0.18, H -1.08, M -0.599, P -1.13, N -1.15, L -0.345, W -0.831
G429: S -0.131, Q -0.283, W -0.114, K -0.404, Y -0.0542, N -0.133, H -0.299, V -0.00866, I -0.0856, M -0.288, P -1.12, E -0.296, A 0.031, C 0.227, T -0.219, R -0.355, L -0.125, D -0.382, F 0.209
G434: M 0.0898, V -0.0502, N -0.392, D -0.275, I -0.0439, S -0.0544, T -0.0414, R -0.0648, L -0.158, F 0.125, E 0.0175, C 0.163, Q -0.0366, H -0.0472, P -0.0275, A 0.188, K 0.22
Q426: A -0.0345, D -0.46, W -0.215, G -0.158, N -0.05, K 0.106, R -0.143, V -0.068, P -0.928, H -0.0882, Y 0.0116, C -0.0839, T -0.247, F -0.17, L -0.0573, I -0.057, S -0.0807, E -0.28, M -0.183
T424: A -0.121, F -0.0268, E -0.45, S -0.192, M -0.383, G -0.293, V -0.09, H -0.235, K -0.203, I 0.0389, P -0.685, D -0.256, C -0.0623, Q -0.355, L -0.165, Y -0.181, W -0.204, N -0.156, R -0.0759
K422: H -0.22, M -0.42, I -0.297, T -0.156, W -0.317, S -0.227, A -0.0566, P -1.09, L -0.353, N -0.21, R 0.334, E -0.492, Y -0.355, F -0.584, D -0.458, Q 0.195, C -0.221, G -0.491, V -0.231
Y428: S -0.915, M -0.656, R -1.14, V -1.03, W 0.228, H -0.753, T -1.1, G -1.13, D -1.09, K -0.832, I -1.03, C -0.883, L -0.828, A -1.05, E -1.1, N -1.01, F -0.153, P -1.18, Q -1.2
T417: L -0.0186, M 0.321, N 0.149, I -0.142, Q -0.0624, S 0.0785, H -0.254, K 0.36, Y 0.325, W -0.253, V 0.0389, R 0.199, P -0.506
A431: I 0.0332, V -0.0559, F -0.237, D -0.204, K 0.126, L 0.0682, G -0.211, N 0.00246, P -0.0943, Y -0.0701, T -0.0229, H 0.358, M -0.23, E 0.346, C -0.0248, R -0.0201, Q -0.242, W -0.13, S 0.129
L430: R -0.655, F 0.0205, I -0.29, N -0.276, A -0.143, M -0.448, S -0.127, C -0.0232, G -0.304, H -0.604, P -0.888, T -0.477, K -0.617, V -0.165, Y -0.0889, D -0.393, Q -0.561, E -0.36, W 0.0653
H420: F -0.576, M -0.23, L -0.527, S -0.494, I -0.666, P -0.877, E -0.781, N -0.608, T -0.525, D -0.651, A -0.146, Q -0.0915, C -0.465, Y -0.672, K -0.792, W -0.434, G -0.0793, R -0.393, V -0.371
L423: H 0.0797, A 0.0643, F -0.0863, C 0.0721, Y -0.0686, W -0.0181, N -0.091, I -0.059, Q 0.416, D -0.261, T -0.513, R -0.232, P -0.683, G 0.0807, E -0.289, V -0.132, M 0.142, K -0.269, S 0.137
Y425: D -0.805, F -0.11, T -0.255, Q -0.626, W -0.328, V 0.00816, M 0.236, R -0.476, P -0.934, G -0.907, L -0.213, K -0.0804, N -0.608, I 0.315, E -0.544, C -0.509, S -0.31, A -0.637, H -0.0609
I421: V -0.0973, N -0.83, S -0.59, W -0.59, Q -0.51, M -0.139, E -0.385, A -0.443, T -0.299, R -0.207, F -0.142, C -0.3, K -0.173, P -1.15, L 0.0792, Y -0.435, D -0.852, G -0.609, H -0.201
